Test results reported in patent US9266964.

Target: human plasma kallikrein (human) (UniProt P03952)
Assay: ELISA; signal on coated biotinylated human plasma kallikrein divided by signal on streptavidin; Fab

Sequence of human plasma kallikrein (human) (P03952 20-390, chain 1 of 2): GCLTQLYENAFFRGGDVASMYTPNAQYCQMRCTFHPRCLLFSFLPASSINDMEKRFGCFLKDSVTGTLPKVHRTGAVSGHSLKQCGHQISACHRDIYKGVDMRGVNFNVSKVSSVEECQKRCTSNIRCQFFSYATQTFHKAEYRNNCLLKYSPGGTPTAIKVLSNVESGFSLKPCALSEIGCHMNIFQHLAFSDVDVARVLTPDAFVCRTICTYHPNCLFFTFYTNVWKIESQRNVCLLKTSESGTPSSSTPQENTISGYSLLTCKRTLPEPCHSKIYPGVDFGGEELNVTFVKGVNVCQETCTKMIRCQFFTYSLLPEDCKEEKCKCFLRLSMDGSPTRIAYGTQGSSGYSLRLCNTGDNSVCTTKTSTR
Sequence of human plasma kallikrein (human) (P03952 391-638, chain 2 of 2): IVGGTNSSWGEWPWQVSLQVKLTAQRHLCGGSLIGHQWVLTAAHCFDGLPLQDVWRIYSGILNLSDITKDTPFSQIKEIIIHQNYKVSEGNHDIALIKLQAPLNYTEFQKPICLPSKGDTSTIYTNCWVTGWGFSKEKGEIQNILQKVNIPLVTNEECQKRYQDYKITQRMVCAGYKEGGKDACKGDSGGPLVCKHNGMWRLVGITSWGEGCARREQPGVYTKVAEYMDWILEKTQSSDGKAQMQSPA

| Binder | Human pKal ELISA (T/B) (T/B (target signal / background signal)) |
| --- | --- |
| M28-F01 (Fab, V domains shown) VH: EVQLLESGGGLVQPGGSLRLSCAASGFTFSVYLMHWVRQAPGKGLEWVSGISPSGGYTQYADSVKGRFTISRDNSKNTLYLQMNSLRAEDTAVYYCARPGGLDAFDIWGQGTMVTVSS VL: DIQMTQSPSSLSASVGDRVTITCRASQSINTYLNWYQQKPGKAPKVLIHAASTLESGVPSRFSGSGSGTDFTLTISSLQPEDFATYYCQQSYSTPPTFGQGTKVEIK | 1.5 |
| M29-E02 (Fab, V domains shown) VH: EVQLLESGGGLVQPGGSLRLSCAASGFTFSRYPMMWVRQAPGKGLEWVSVIYPSGGDTFYADSVKGRFTISRDNSKNTLYLQMNSLRAEDTAVYYCASGDDYLWEAAVYWGQGTLVTVSS VL: QSVLTQPPSVSEAPRQRVTISCSGSSSNIGNNAVSWYQQLPGKAPKLLIYYDDLLPSGVSDRFSGSKSGTSASLAISGLRSEDEADYYCAAWDDSLNGFVFGTGTKVTVL | 2 |
